Drawing on paper PMC7042235, this text covers Kd for 1 substance.

The test deals with microtubules (polymerized porcine tubulin) (porcine) (UniProt P02550). The experiment in a line: co-sedimentation; purified MTBDs (1-32 uM) mixed with 5 uM paclitaxel-stabilised porcine MTs; 100 mM PIPES pH 6.8, 50 mM NaCl, 2 mM MgCl2, 1 mM EGTA; 210,000 x g, 25 °C, 10 min; pellets on SDS-PAGE, densitometry, one-site curve fitting.

The term Kd denotes the concentration at which binding is half-saturated.

In the case of “MTBD-High, MTBD(I3101C/V3222C) (from UniProt P36022 3096-3232) (domain or fragment)”, the Kd turned out to be 4.8 µM.
